Source: paper PMC11903869, “Structure and function of the geldanamycin amide synthase from Streptomyces hygroscopicus” (Nature Communications, 2025)
One block for each molecule: values may come before it.

How the values were obtained:
GdmF [1] = target: T1, GdmF (Streptomyces hygroscopicus, UniProt Q84G21); experiment: X-ray crystal structure (cleaved group from SNAC thioesters); format: binding
T1 construct: full-length GdmF, N-terminal histidine hexamer

GdmF [2] = target: T1, GdmF; experiment: X-ray crystal structure (cleaved group from pantetheine thioesters); format: binding
GdmF [3] = target: T1, GdmF; experiment: microscale thermophoresis; format: binding
[4] = substrate: CC(=O)SCCNC(=O)CCNC(=O)[C@H](O)C(C)(C)CO; experiment: purified protein, by the assay type; design: Steady-state amide formation, thiol release from thioesters monitored with DTNB at 405 nm, 22 °C; kcat: unit: s^-1; settings: pH 7.5; 22.0 °C
Procedure: (§1) The enzymatic activity of ShGdmF was measured by monitoring the release of free thiols with 5,5’-dithio-bis(2-nitrobenzoic acid) (DTNB) at 405 nm in 100 mM sodium phosphate buffer, pH 7.5. 2 µM ShGdmF was pre-incubated with 2 mM aminophenol 32 or 33 and 100 µM DTNB at 22 °C for 5 min in a 96-well plate before increasing concentrations of thioester 11a-c or 13a-c were added to each well. Measurements were performed using a Multiskan FC Microplate Photometer (Thermo Fisher Scientific) at 22 °C. Each measurement was performed in triplicate. […] The enzyme is able to catalyze the amide synthesis of SNAC and pantetheine thioesters directly in vitro and in the absence of the cellular environment (Fig. 6e + 6f). The kinetic parameters KM of GdmF for substrate conversion range from submillimolar to millimolar at maximum rates (kcat) of 0.001 to 0.02 s^−1. […] For the SNAC thioesters, an increase in kcat/KM with increasing chain length was observed, whereas in the case of the pantetheine thioesters, a decrease in catalytic efficiency with longer acyl substrates was observed. In terms of kcat values, the activity of GdmF is similar to that of the related MsNAT.

[5] = substrate: C/C=C(\C)C(=O)SCCNC(C)=O; experiment: purified protein, by the assay type; design: Steady-state amide formation, thiol release from thioesters monitored with DTNB at 405 nm, 22 °C; kcat: unit: s^-1; settings: pH 7.5; 22.0 °C
Procedure: as §1

[6] = substrate: CC/C=C/C(=O)SCCNC(=O)CCNC(=O)[C@H](O)C(C)(C)CO; experiment: purified protein, by the assay type; design: Steady-state amide formation, thiol release from thioesters monitored with DTNB at 405 nm, 22 °C; kcat: unit: s^-1; settings: pH 7.5; 22.0 °C
Procedure: as §1

[7] = substrate: C/C=C/C(=O)SCCNC(C)=O; experiment: purified protein, by the assay type; design: Steady-state amide formation, thiol release from thioesters monitored with DTNB at 405 nm, 22 °C; kcat: unit: s^-1; settings: pH 7.5; 22.0 °C
Procedure: as §1

[8] = substrate: CC(=O)SCCNC(=O)CCNC(=O)[C@H](O)C(C)(C)CO; experiment: purified protein, by the assay type; design: Steady-state amide formation, thiol release from thioesters monitored with DTNB at 405 nm, 22 °C; kcat: unit: s^-1; settings: pH 7.5; 22.0 °C; remark: listed apart in the source
Procedure: as §1

[9] = substrate: C/C=C(\C)C(=O)SCCNC(C)=O; experiment: purified protein, by the assay type; design: Steady-state amide formation, thiol release from thioesters monitored with DTNB at 405 nm, 22 °C; kcat: unit: s^-1; settings: pH 7.5; 22.0 °C; remark: listed apart in the source
Procedure: as §1

[10] = substrate: CC/C=C/C(=O)SCCNC(=O)CCNC(=O)[C@H](O)C(C)(C)CO; experiment: purified protein, by the assay type; design: Steady-state amide formation, thiol release from thioesters monitored with DTNB at 405 nm, 22 °C; kcat: unit: s^-1; settings: pH 7.5; 22.0 °C; remark: listed apart in the source
Procedure: as §1

[11] = substrate: C/C=C/C(=O)SCCNC(C)=O; experiment: purified protein, by the assay type; design: Steady-state amide formation, thiol release from thioesters monitored with DTNB at 405 nm, 22 °C; kcat: unit: s^-1; settings: pH 7.5; 22.0 °C; remark: listed apart in the source
Procedure: as §1

Molecule: CC(=O)NCCS [N-acetylcysteamine]
X-ray crystal structure (cleaved group from SNAC thioesters) (GdmF [1]): we found densities for the cleaved SNAC or pantetheine groups, instead

Molecule: CC(C)(CO)[C@@H](O)C(=O)NCCC(=O)NCCS [pantetheine]
X-ray crystal structure (cleaved group from pantetheine thioesters) (GdmF [2]): Crystal structure of GdmF with bound pantetheine, and (b) N-acetylcysteamine (SNAC) in the active site cleft

Kd (GdmF [3]): 1160 µM
Molecule: C/C=C(\C)C(=O)SCCNC(C)=O [11b, SNAC ester 11b]

Kd (GdmF [3]): 2960 µM
Molecule: CC(=O)SCCNC(=O)CCNC(=O)[C@H](O)C(C)(C)COP(=O)(O)OP(=O)(O)OC[C@H]1O[C@@H](n2cnc3c(N)ncnc32)[C@H](O)[C@@H]1OP(=O)(O)O [compound 5, acetyl-CoA]

B1: GdmF (Streptomyces hygroscopicus) (protein)
chain: MFDVAKYLRRIGVEGTPPPTLDTLRHLHKRHLMAVPYDNSTAPDRLPASRHLTNVPLDLVFGHVVTEGHGGVCYELNRLFHTLLAELGYDVRMVAAAVRQANGTFGPEREHTFDLVHLDGRTHLVDVGFPGPSYSEPLYLSEEEQHQYGCSYRVTEHDGYRVVERRPKGSDWQPVYRFRPELADPSGWDAVRLDSLDDYAQDSVLAGTTFRSRATDNGKIVLIGRRYFTVEDGVERTKVLVKADEFQDVVDLILAGA
notes: full-length GdmF, N-terminal histidine hexamer
Km [4]: 3.6483 ± 2.8127 mM
kcat [4]: 0.0075 ± 0.0051 s⁻¹
kcat/Km [4]: 2.06 M⁻¹ s⁻¹
Km [5]: 6.9024 ± 4.1426 mM
kcat [5]: 0.012 ± 0.0058 s⁻¹
kcat/Km [5]: 1.74 M⁻¹ s⁻¹
Km [6]: 8.2677 ± 1.6107 mM
kcat [6]: 0.0084 ± 0.0013 s⁻¹
kcat/Km [6]: 1.02 M⁻¹ s⁻¹
Km [7]: 1.8651 ± 0.2537 mM
kcat [7]: 0.0032 ± 0.00026 s⁻¹
kcat/Km [7]: 1.72 M⁻¹ s⁻¹
Km [8]: 6.4136 ± 2.0704 mM
kcat [8]: 0.0164 ± 0.0039 s⁻¹
kcat/Km [8]: 2.56 M⁻¹ s⁻¹
Km [9]: 2.735 ± 0.6103 mM
kcat [9]: 0.0071 ± 0.0007 s⁻¹
kcat/Km [9]: 2.6 M⁻¹ s⁻¹
Km [10]: 1.1368 ± 0.1369 mM
kcat [10]: 0.0027 ± 0.00013 s⁻¹
kcat/Km [10]: 2.37 M⁻¹ s⁻¹
Km [11]: 0.8581 ± 0.2327 mM
kcat [11]: 0.0016 ± 0.00019 s⁻¹
kcat/Km [11]: 1.87 M⁻¹ s⁻¹
